Like-named read-outs stand apart in the source and are kept apart here.
Columns and labels:
[1] = molecular target: T1, human 4-1BB on the surface of HEK293-Hu4-1BB cells (human, UniProt Q07011 24-255); assay: cell-based or functional assay
[2] = molecular target: T1, human 4-1BB on the surface of …; assay: cell-based or functional assay; remark: listed apart in the source
[3] = molecular target: T1, human 4-1BB on the surface of …; assay: flow cytometry on HEK293-Hu4-1BB cells
[4] = molecular target: T1, human 4-1BB on the surface of …; assay: flow cytometry on HEK293-Hu4-1BB cells; remark: listed apart in the source

T1 sequence (Q07011 24-255): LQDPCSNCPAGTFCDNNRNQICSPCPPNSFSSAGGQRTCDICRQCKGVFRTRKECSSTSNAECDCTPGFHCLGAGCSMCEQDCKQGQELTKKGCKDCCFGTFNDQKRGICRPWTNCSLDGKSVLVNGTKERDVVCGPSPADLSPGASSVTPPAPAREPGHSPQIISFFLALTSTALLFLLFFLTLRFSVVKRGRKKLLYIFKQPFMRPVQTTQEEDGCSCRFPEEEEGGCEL

B1: Urelumab (antibody, V domains shown)
VH: QVQLQQWGAGLLKPSETLSLTCAVYGGSFSGYYWSWIRQSPEKGLEWIGEINHGGYVTYNPSLESRVTISVDTSKNQFSLKLSSVTAADTAVYYCARDYGPGNYDWYFDLWGRGTLVTVSS
VL: EIVLTQSPATLSLSPGERATLSCRASQSVSSYLAWYQQKPGQAPRLLIYDASNRATGIPARFSGSGSGTDFTLTISSLEPEDFAVYYCQQRSNWPPALTFGGGTKVEIK
For B1, the “EC50, 4-1BB/NF-κB luciferase reporter, FcγRIIb cross-linking” value [1] was 0.027 nM, the “EC50, 4-1BB/NF-κB luciferase reporter, no FcγRIIb cross-linking” value [1] was 2.19 nM and the “Emax, 4-1BB/NF-κB luciferase reporter, FcγRIIb cross-linking” value [1] was 9.39 relative to the antibody-free group. The “Emax, 4-1BB/NF-κB luciferase reporter, no FcγRIIb cross-linking” value [1] was 4.3 relative to the antibody-free group, the “Fold change in Emax, FcγRIIb-mediated activation of HEK293-4-1BB cells” value [2] was 2.61 fold and the “Fold change in Emax, activation of HEK293-4-1BB cells (no FcγRIIb)” value [2] was 1.7 fold. The EC50 [3] was 1.18 nM and the EC50 [4] was 1.64 nM.
